Measurements: PMC12022260

Target: T1, His-FleQ (Azotobacter vinelandii AEIV) (UniProt C1DQF1)
T1 sequence: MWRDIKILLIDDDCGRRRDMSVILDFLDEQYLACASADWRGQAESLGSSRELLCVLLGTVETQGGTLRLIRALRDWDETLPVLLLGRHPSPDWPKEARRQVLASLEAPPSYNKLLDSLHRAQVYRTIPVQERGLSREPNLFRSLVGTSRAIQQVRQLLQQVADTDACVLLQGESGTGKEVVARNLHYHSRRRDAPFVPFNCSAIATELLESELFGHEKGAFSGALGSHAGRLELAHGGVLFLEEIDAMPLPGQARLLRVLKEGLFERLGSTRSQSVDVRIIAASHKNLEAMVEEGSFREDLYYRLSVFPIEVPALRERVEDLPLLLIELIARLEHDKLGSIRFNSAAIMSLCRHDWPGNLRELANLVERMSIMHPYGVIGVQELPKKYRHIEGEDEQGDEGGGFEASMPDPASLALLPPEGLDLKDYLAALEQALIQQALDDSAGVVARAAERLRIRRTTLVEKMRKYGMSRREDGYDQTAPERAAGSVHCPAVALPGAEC
Assay: EMSA
Details: 10 mM Tris pH 8, 8 mM Mg acetate, 50 mM KCl, 10 ug/ml BSA, 5% glycerol; 100 ng DNA in 20 ul; room temperature 20 min; 6% native acrylamide gel, 0.5x-1x TBE …

| Sequence | binding |
| --- | --- |
| CCGAAAATGCTGATACGCATTGCGTTCACCTCGTCCTTATTTAACGAAAAGTCGACGACTAAAACCCTTGGTCGTCACATTGCCGGCGGCCTTCAAGGGAAATTTGCAGGCCGAATTATAGTCAATAAAATGTCGTGCCAAATGAGCTGGCGTTAAAAGGCAGGTTGCAAGGGATGCTTTATAACTGCTCAAGCGATCCATGTTCG (double strand) [algD proximal region] | binds |
| GCGAATTCGGACGCCGCGAGTAAAACGAAAAAGCAAGCCGCCTGAACCCACACTTGCGCTCCCGGCGTTTTGTACCATGCTTTTCCTGAATCATTGTGCTAAGGAGAAAAGTATGAATAAAAGAGGAGCGTTGTTGAGCCTGCTGGATCCAGG (double strand) [yebF regulatory region] | no binding |
